We go through three molecules from publication PMC3402909 (Biopolymers, 2011).

Where a SMILES comes first, the peptide text is derived from it.

One assay deals with Grb2-Sos1 association (Rattus norvegicus, UniProt P62994). The assay is described as follows: Blockade of Grb2-Sos1 association in PC12 cell lysates. In kind it is biochemical, human. To be noted: 1 μM peptide, PC12 cell lysate.
The target in assay [1] is Sos1 WT peptide 1 PEP (Homo sapiens) (UniProt Q07889). The note with it: cited from earlier work.
Another assay has as its target Grb2 SH3 N-domain. The experiment in a line: other fluorescence titration.

In general, Kd refers to the free concentration of one partner at which half of the binding sites on the other are occupied at equilibrium, for simple one-to-one binding.

Sequence of Grb2-Sos1 association (P62994 whole entry): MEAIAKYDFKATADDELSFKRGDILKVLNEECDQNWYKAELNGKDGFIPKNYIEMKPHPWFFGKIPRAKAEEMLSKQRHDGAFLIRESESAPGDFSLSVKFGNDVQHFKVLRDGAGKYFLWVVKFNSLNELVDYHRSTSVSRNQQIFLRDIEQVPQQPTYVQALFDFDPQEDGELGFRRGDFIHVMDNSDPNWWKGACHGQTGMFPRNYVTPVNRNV

As to `CC(=O)N1CCC[C@H]1C(=O)N[C@@H](CCCNC(=N)N)C(=O)N[C@H](C(=O)N1CCC[C@H]1C(=O)N1CCC[C@H]1C(=O)N1CCC[C@H]1C(=O)N1CCC[C@H]1C(=O)N[C@H](C(=O)N[C@@H](CCCNC(=N)N)C(=O)N[C@@H](CCCNC(=N)N)C(N)=O)C(C)C)C(C)C` [Peptide 13, Ac-P-R-V-P-P-P-P-V-R-R-NH2] (Ac-PRVPPPPVRR-NH2), the “inhibition of Grb2-Sos1 association” value at Grb2-Sos1 association is reported as “little inhibition”.

With “Grb2 N-terminal SH3 (from UniProt P62993)”, the dissociation constant Kd in assay [1] was 39 µM.

B1: scrambled peptide Ac-P-R-V-P-P-P-P-V-R-R-NH2 (13) (peptide)
peptide: Ac-PRVPPPPVRR-NH2
In the assay with Grb2 SH3 N-domain, B1 yielded a dissociation constant (Kd) of 173 µM.
